Results as given in patent US10745461B2, “Pulsed introduction of low-dose RANKL as a therapy for diet-induced atherosclerosis” (Saint Louis University, priority 2015, dated 2020).

Tests used:
[1] = test system: ovariectomized mice; experiment: Low-dose RANKL at various times post-OVX in C57BL/6J mice; type: in vivo; conditions: for TcREG induction (flow-cytometry, femora): OVX C57BL/6J, two doses 0.125 mg/kg 24 hours apart, 10 days after first treatment, 2, 3, 6, 8 weeks post-OVX, 0.125 mg/kg
Method: FIGS. 9E-9F provide for examples of a low-dose RANKL treatment in a mouse model. All mice (C57BL/6J) were sham-operated (S) or ovariectomized (OVX) at 12 weeks of age. At time indicated after OVX, two doses of RANKL (0.125 mg/kg) were administered 24 hours apart 10 days after first treatment, mice were sacrificed. […] Representative images of the proximal tibia are shown from 3 weeks post-OVX in FIG. 9E. […] Representative images from the double-labeled femur (calcein green and alizarin red) from each group are shown. Arrows are shown to emphasize the distance between dyes. Data from 6 to 12 mice per group. For figure reference; ****=P<1×10^−4; ***=P<1×10^−3; **=P<0.01; *=P<0.05 and NS=not statistically significant.

[2] = test system: aortic plaque development and bone loss; experiment: Ovariectomized WT or LDLR-lacking female mice on Western Diet, pulsed low dose RANKL 14 days and 6 weeks post surgery; type: in vivo
Source text: With specific regards to determining an effect on atherosclerosis, ten-week old female mice that were either C57BL/6J (WT) or lacking low-density lipoprotein receptor (LDLR) were randomly assigned to chow (LabDiet 5L0B, containing 5% fat and 0.014% cholesterol, by weight) or a “Western Diet” that was high in fat and cholesterol (Teklad TD96121, containing 21% fat and 1.25% cholesterol). When the mice were 12 weeks old, all animals were surgically operated. Half the mice were ovariectomized (simulating menopause), and the other half had sham surgery. One group of ovariectomized mice on the Western Diet were treated with pulsed low dose RANKL (0.125 mg/kg) 14 days post surgery (14 weeks of age) and 6 weeks post surgery (18 weeks old). All mice were sacrificed at 20 weeks of age, and bone loss and aortic plaque development were analyzed.

B1: receptor activator of NF-κB ligand (protein, UniProt O35235 139-316, looked up)
Tumor necrosis factor ligand …: FSGAPAMMEGSWLDVAQRGKPEAQPFAHLTINAASIPSGSHKVTLSSWYHDRGWAKISNMTLSNGKLRVNQDGFYYLYANICFRHHETSGSVPTDYLQLMVYVVKTSIKIPSSHNLMKGGSTKNWSGNSEFHFYSINVGGFFKLRAGEEISIQVSNPSLLDPDQDATYFGAFKVQDID
modifications: GST tag
TcREG induction (flow-cytometry, femora) ([1]; listed as Low-dose RANKL): induced TcREG | TcREG induction (flow-cytometry, femora) ([1]; listed as low-dose RANKL): can induce TcREG at two, three, six and eight-weeks post-ovariectomy | bone mass of the proximal tibia by μCT ([1]; as E20): increased bone mass of the proximal tibia | mineral apposition and bone formation rate (dynamic histomorphometry) ([1]; as E20): increased mineral apposition (left panel) and bone formation rate | proinflammatory effector cells in the femora ([1]; as E20): decreased proinflammatory effector cells in the femora | serum CTX levels ([1]; as E20): decreased serum CTX levels | plaque volume ([2]; low dose RANKL treated mice): plaque volume in low dose treated mice was also reduced | weight gain ([2]; low dose RANKL vs without treatment): less weight gain | inflammation ([2]; ovariectomized mice, compared to Zolendronate): reduced | number of atherosclerotic lesions in the aortic root ([2]; ovariectomized, western diet): the number of atherosclerotic lesions in the aortic root was reduced | osteoporosis ([2]; ovariectomized, western diet): ameliorate osteoporosis
